Data reported in the supplement of paper PMC12764529.
± gives the half width of the 95% confidence interval.

Columns and labels:
[1] = folding stability dG unfold from trypsin proteolysis; higher = more stable
Outline: (§1)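 Unfolding free energy was derived, per protease or combined, against a sequence-predicted unfolded-state K50 and a shared folded-state K50, starting from K50 inferred by Bayesian fitting of sequencing counts. Digestion with trypsin and chymotrypsin was carried out on designed mini-proteins under 80 residues without cysteine in a PA-tagged cDNA display construct. Only designs with AlphaFold2 dimer inter-PAE above 15 were kept.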

[2] = folding stability dG unfold from chymotrypsin proteolysis; higher = more stable
Outline: as §1

[3] = folding stability dG unfold (combined trypsin and chymotrypsin); higher = more stable
Outline: as §1

SAGGSAGGSAPMVLLLEFDSPEEATEAAKKIAEEFEKLGAKVEVEIFKPPEDKYLVLIRIDSAGGSAGGSAG [r3_211_TrMRF]
folding stability dG unfold [1]: 3.66 ± 0.38 kcal/mol | folding stability dG unfold [2]: 3.91 ± 0.12 kcal/mol | folding stability dG unfold [3]: 3.89 ± 0.21 kcal/mol

SAGGSAGGSAPNYIKIRIKFQSDGKRHSMEIFIPDNPKKAKQIAKEMANMGGIEDVEVERYSAGGSAGGSAG [r3_310_TrROS]
folding stability dG unfold [1]: 0.515 ± 0.13 kcal/mol | folding stability dG unfold [2]: 0.659 ± 0.13 kcal/mol | folding stability dG unfold [3]: 0.667 ± 0.16 kcal/mol

SAGGSAGGSAPPLDRVFVEVRVEPGEDAGVVVTHPDGRVLTAPADADVVFEFHPDVPVLVADASAGGSAGGS [r12_553_TrMRF]
folding stability dG unfold [1]: -1.27 ± 0.49 kcal/mol | folding stability dG unfold [2]: 0.129 ± 0.12 kcal/mol | folding stability dG unfold [3]: -0.201 ± 0.18 kcal/mol

SAGGSAGGSAPPPPPPVYRIPIEITEIDPNGKITVTLPDLGEEITFPAPNVEVIPGDEFYIPSAGGSAGGSA [r18_89_TrROS]
folding stability dG unfold [1]: 1.95 ± 0.11 kcal/mol | folding stability dG unfold [2]: 1.67 ± 0.045 kcal/mol | folding stability dG unfold [3]: 1.86 ± 0.16 kcal/mol

SAGGSAGGSAPPVKTITVELVFFNPETQEVFVLRAEVRLLPDGTLEIRTEIERVKVEPGAVLLSAGGSAGGS [r12_116_TrROS_Hall]
folding stability dG unfold [1]: 1.64 ± 0.096 kcal/mol | folding stability dG unfold [2]: 2.22 ± 0.11 kcal/mol | folding stability dG unfold [3]: 2.09 ± 0.15 kcal/mol

SAGGSAGGSAPSKKVKFKVLAKNTKTGKYKEIDITAEVPVSNGKVVSIEELLKKFPDFELKPSAGGSAGGSA [r18_267_TrMRF]
folding stability dG unfold [1]: 0.342 ± 0.11 kcal/mol | folding stability dG unfold [2]: 0.0845 ± 0.38 kcal/mol | folding stability dG unfold [3]: 0.172 ± 0.21 kcal/mol

SAGGSAGGSAPTLELTVTLPDGLRVTVRYDLETDEVTIEVRPLPAPPPPELSEEERKKLAEESAGGSAGGSA [r18_236_TrROS_Hall]
folding stability dG unfold [1]: 1.24 ± 0.056 kcal/mol | folding stability dG unfold [2]: 2.25 ± 0.2 kcal/mol | folding stability dG unfold [3]: 1.98 ± 0.12 kcal/mol

SAGGSAGGSAPTSSVVTFPYESPEEARERARELAEEERARRGVRFRVEYDPATGTVTLTAVESAGGSAGGSA [r18_368_JUSTAS]
folding stability dG unfold [1]: 0.673 ± 0.064 kcal/mol | folding stability dG unfold [2]: 0.926 ± 0.12 kcal/mol | folding stability dG unfold [3]: 0.859 ± 0.13 kcal/mol

SAGGSAGGSAPWLTIIFRMDTPEMAKEIANWLREDGLDIEVETEPDPNDGRFWVMITIQLPNSAGGSAGGSA [r18_455_TrROS]
folding stability dG unfold [1]: 3.57 ± 0.16 kcal/mol | folding stability dG unfold [2]: 4.24 ± 0.07 kcal/mol | folding stability dG unfold [3]: 3.96 ± 0.17 kcal/mol

SAGGSAGGSAPWYIAIYMPGNGRKRTYPFKSADDIKEEIKEHLGPGMNPDNVEIKIIPPDDISAGGSAGGSA [r18_350_TrROS]
folding stability dG unfold [1]: 0.279 ± 0.14 kcal/mol | folding stability dG unfold [2]: -0.782 ± 0.81 kcal/mol | folding stability dG unfold [3]: -0.0945 ± 0.38 kcal/mol

SAGGSAGGSARVFIVITYQNPGDGKPRQITIPIDIKDGKITLDDLKELFPGYPITNISIFPLSAGGSAGGSA [r18_494_TrROS]
folding stability dG unfold [1]: 3.5 ± 0.14 kcal/mol | folding stability dG unfold [2]: 3.58 ± 0.12 kcal/mol | folding stability dG unfold [3]: 3.65 ± 0.13 kcal/mol

SAGGSAGGSASAEEIAAKIEALFPVKVTVVREEPTPLGRPEVVIEVDAVGVPEELLEEVLKSAGGSAGGSAG [r3_40_JUSTAS]
folding stability dG unfold [1]: 0.68 ± 0.04 kcal/mol | folding stability dG unfold [2]: 0.446 ± 0.033 kcal/mol | folding stability dG unfold [3]: 0.559 ± 0.064 kcal/mol

SAGGSAGGSASIELPPDATVTLTTLDPATGTVTTTTVKVDSTGTTTLATTTTTVDPASAAAASAGGSAGGSA [r18_248_JUSTAS]
folding stability dG unfold [1]: 1.27 ± 0.055 kcal/mol | folding stability dG unfold [2]: 1.35 ± 0.028 kcal/mol | folding stability dG unfold [3]: 1.41 ± 0.11 kcal/mol

SAGGSAGGSASIGGGPTGHSYKITLPNGTEKFLVMDPSTLKELIEKLGVKEVEVKDIGPLQSAGGSAGGSAG [r3_141_JUSTAS]
folding stability dG unfold [1]: 0.842 ± 0.077 kcal/mol | folding stability dG unfold [2]: 0.0184 ± 0.27 kcal/mol | folding stability dG unfold [3]: 0.482 ± 0.15 kcal/mol

SAGGSAGGSASITLTLGDTPLEVSTDPSTNTYTFTYPAPGLVLTLDVSTGKLSARPLAELASAGGSAGGSAG [r3_137_JUSTAS]
folding stability dG unfold [1]: 0.216 ± 0.11 kcal/mol | folding stability dG unfold [2]: 1.69 ± 0.071 kcal/mol | folding stability dG unfold [3]: 1.13 ± 0.077 kcal/mol

SAGGSAGGSASLSPDEEVEITDPANGTKYKVTKLPDGTVLLENPETGETYVRTDSNDWKLTSAGGSAGGSAG [r3_96_JUSTAS]
folding stability dG unfold [1]: 0.88 ± 0.04 kcal/mol | folding stability dG unfold [2]: 0.88 ± 0.18 kcal/mol | folding stability dG unfold [3]: 0.932 ± 0.15 kcal/mol

SAGGSAGGSASMDTVVEVGPEILSTGLPIEKVTYDPNTGKTYIETPDKLYVIDSDGNITVDASAGGSAGGSA [r18_445_JUSTAS]
folding stability dG unfold [1]: 1.72 ± 0.057 kcal/mol | folding stability dG unfold [2]: 1.69 ± 0.025 kcal/mol | folding stability dG unfold [3]: 1.72 ± 0.057 kcal/mol

SAGGSAGGSASMGVVDEFVVYVPGEKGEEVEVKVYKDPNSDRYIVEIKGKKIPVTDEKKALLSAGGSAGGSA [r18_67_JUSTAS]
folding stability dG unfold [1]: 0.41 ± 0.068 kcal/mol | folding stability dG unfold [2]: 0.0997 ± 0.33 kcal/mol | folding stability dG unfold [3]: 0.447 ± 0.26 kcal/mol

SAGGSAGGSASMKEVTILVKKKLPGGEEEESVTTVTLNPNEIDKVKEEFKKKGWEVVKVVSSAGGSAGGSAG [r3_453_JUSTAS]
folding stability dG unfold [1]: 1.23 ± 0.017 kcal/mol | folding stability dG unfold [2]: 1.74 ± 0.034 kcal/mol | folding stability dG unfold [3]: 1.56 ± 0.045 kcal/mol

SAGGSAGGSASMKVLEFPPDASIEEILEKIEKELGLSKEEIKNIKIEKIDDEEGSYKVIIESAGGSAGGSAG [r3_26_JUSTAS]
folding stability dG unfold [1]: 2.42 ± 0.062 kcal/mol | folding stability dG unfold [2]: 2.62 ± 0.054 kcal/mol | folding stability dG unfold [3]: 2.59 ± 0.07 kcal/mol

SAGGSAGGSASMNVLVVRTKPDGTPEVTEVETGDPEKAKEEIAKRSNVTTPEGTVTVELTGVSAGGSAGGSA [r18_457_JUSTAS]
folding stability dG unfold [1]: -1.02 ± 0.13 kcal/mol | folding stability dG unfold [2]: -1.06 ± 0.27 kcal/mol | folding stability dG unfold [3]: -0.961 ± 0.46 kcal/mol

SAGGSAGGSASMSYITKVEYKESPEGKLITTTTTTDPTSPNDVKTTTTVTPLPPLNPSPELKSAGGSAGGSA [r18_409_JUSTAS]
folding stability dG unfold [1]: -0.309 ± 0.085 kcal/mol | folding stability dG unfold [2]: -0.829 ± 0.73 kcal/mol | folding stability dG unfold [3]: -0.525 ± 0.29 kcal/mol

SAGGSAGGSASMTVVVEREEITRRDPSSDELFEEEVVRATTTEKDGVIETTTLPEEEWEKLSSAGGSAGGSA [r18_406_JUSTAS]
folding stability dG unfold [1]: 0.348 ± 0.056 kcal/mol | folding stability dG unfold [2]: -0.521 ± 0.2 kcal/mol | folding stability dG unfold [3]: -0.0202 ± 0.32 kcal/mol

SAGGSAGGSASPQVVEVLSTVPLPGSNIVIEKTSDASGNSYVYDPNTGKWFSPEEAKKLLSSAGGSAGGSAG [r3_206_JUSTAS]
folding stability dG unfold [1]: 0.84 ± 0.057 kcal/mol | folding stability dG unfold [2]: 1.73 ± 0.077 kcal/mol | folding stability dG unfold [3]: 1.5 ± 0.1 kcal/mol

SAGGSAGGSASSSTFPRRNYTVTITTDPSNGKKTVTVLNPATGEATTLTPEELEADPVLAEAVSAGGSAGGS [r12_817_JUSTAS]
folding stability dG unfold [1]: 1.05 ± 0.017 kcal/mol | folding stability dG unfold [2]: 1.8 ± 0.021 kcal/mol | folding stability dG unfold [3]: 1.51 ± 0.043 kcal/mol

SAGGSAGGSASSVPARLPDATVLEVTTDPATGLQTALLRFPDGSEVVVTHYPDGSVEVRPLSAGGSAGGSAG [r3_348_JUSTAS]
folding stability dG unfold [1]: 1.84 ± 0.062 kcal/mol | folding stability dG unfold [2]: 2.67 ± 0.028 kcal/mol | folding stability dG unfold [3]: 2.47 ± 0.099 kcal/mol

SAGGSAGGSASSVVTPISHPDGRTGTKVTLPNGTVIEFIFYPDGTIIEINHSNNTTTVTPLVSAGGSAGGSA [r18_285_JUSTAS]
folding stability dG unfold [1]: 1.44 ± 0.04 kcal/mol | folding stability dG unfold [2]: 1.55 ± 0.017 kcal/mol | folding stability dG unfold [3]: 1.53 ± 0.031 kcal/mol
